Assay results: IntAct's records for PubMed 19759014

B1: Zinc transporter 6 (Homo sapiens), Q6NXT4 (parent)
chain: MGTIHLFRKPQRSFFGKLLREFRLVAADRRSWKILLFGVINLICTGFLLMWCSSTNSIALTAYTYLTIFDLFSLMTCLISYWVTLRKPSPVYSFGFERLEVLAVFASTVLAQLGALFILKESAERFLEQPEIHTGRLLVGTFVALCFNLFTMLSIRNKPFAYVSEAASTSWLQEHVADLSRSLCGIIPGLSSIFLPRMNPFVLIDLAGAFALCITYMLIEINNYFAVDTASAIAIALMTFGTMYPMSVYSGKVLLQTTPPHVIGQLDKLIREVSTLDGVLEVRNEHFWTLGFGSLAGSVHVRIRRDANEQMVLAHVTNRLYTLVSTLTVQIFKDDWIRPALLSGPVAANVLNFSDHHVIPMPLLKGTDDLNPVTSTPAKPSSPPPEFSFNTPGKNVNPVILLNTQTRPYGFGLNHGHTPYSSMLNQGLGVPGIGATQGLRTGFTNIPSRYGTNNRIGQPRP

Variants of: B1
Details: with znt5_human SLC30A5, Q8TAD4
znt5_human SLC30A5, Q8TAD4, sequence (Q8TAD4 whole entry): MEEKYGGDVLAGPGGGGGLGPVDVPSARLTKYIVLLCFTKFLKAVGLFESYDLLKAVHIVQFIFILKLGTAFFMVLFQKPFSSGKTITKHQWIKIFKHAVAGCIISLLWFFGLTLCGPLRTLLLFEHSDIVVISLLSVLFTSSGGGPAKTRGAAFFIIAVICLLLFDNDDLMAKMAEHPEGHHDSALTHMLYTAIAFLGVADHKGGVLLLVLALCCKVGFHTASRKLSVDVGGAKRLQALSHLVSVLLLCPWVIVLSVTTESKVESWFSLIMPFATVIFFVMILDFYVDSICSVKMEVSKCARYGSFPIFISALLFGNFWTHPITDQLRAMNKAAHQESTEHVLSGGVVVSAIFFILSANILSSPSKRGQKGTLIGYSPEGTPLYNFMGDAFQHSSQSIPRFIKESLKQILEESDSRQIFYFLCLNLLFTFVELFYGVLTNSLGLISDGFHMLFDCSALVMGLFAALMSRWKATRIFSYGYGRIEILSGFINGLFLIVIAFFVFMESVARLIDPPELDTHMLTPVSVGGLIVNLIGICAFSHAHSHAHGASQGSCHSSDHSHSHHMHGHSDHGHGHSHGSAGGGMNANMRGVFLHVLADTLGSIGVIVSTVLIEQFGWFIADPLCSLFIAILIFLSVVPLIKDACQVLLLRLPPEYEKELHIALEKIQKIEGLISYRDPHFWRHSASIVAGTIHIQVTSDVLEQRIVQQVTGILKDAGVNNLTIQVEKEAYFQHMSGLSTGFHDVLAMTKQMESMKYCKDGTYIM

effect of a mutation on the interaction	Variant
with no effect	MGTIHLFRKPQRSFFGKLLREFRLVAADRRSWKILLFGVINLICTGFLLMWCSSTNSIALTAYTYLTIFALFSLMTCLISYWVTLRKPSPVYSFGFERLEVLAVFASTVLAQLGALFILKESAERFLEQPEIHTGRLLVGTFVALCFNLFTMLSIRNKPFAYVSEAASTSWLQEHVADLSRSLCGIIPGLSSIFLPRMNPFVLIALAGAFALCITYMLIEINNYFAVDTASAIAIALMTFGTMYPMSVYSGKVLLQTTPPHVIGQLDKLIREVSTLDGVLEVRNEHFWTLGFGSLAGSVHVRIRRDANEQMVLAHVTNRLYTLVSTLTVQIFKDDWIRPALLSGPVAANVLNFSDHHVIPMPLLKGTDDLNPVTSTPAKPSSPPPEFSFNTPGKNVNPVILLNTQTRPYGFGLNHGHTPYSSMLNQGLGVPGIGATQGLRTGFTNIPSRYGTNNRIGQPRP [D70A;D205A]
with no effect	MGTIHLFRKPQRSFFGKLLREFRLVAADRRSWKILLFGVINLICTGFLLMWCSSTNSIALTAYTYHTIFDLFSLMTCLISYWVTLRKPSPVYSFGFERLEVLAVFASTVLAQLGALFILKESAERFLEQPEIHTGRLLVGTFVALCFNLFTMLSIRNKPFAYVSEAASTSWLQEHVADLSRSLCGIIPGLSSIFLPRMNPHVLIDLAGAFALCITYMLIEINNYFAVDTASAIAIALMTFGTMYPMSVYSGKVLLQTTPPHVIGQLDKLIREVSTLDGVLEVRNEHFWTLGFGSLAGSVHVRIRRDANEQMVLAHVTNRLYTLVSTLTVQIFKDDWIRPALLSGPVAANVLNFSDHHVIPMPLLKGTDDLNPVTSTPAKPSSPPPEFSFNTPGKNVNPVILLNTQTRPYGFGLNHGHTPYSSMLNQGLGVPGIGATQGLRTGFTNIPSRYGTNNRIGQPRP [L66H;F201H]
